Reference: publication PMC7057333
Where two headings read alike, the source gives them in different places.

Columns and labels:
[1] = biological target: LSD1_(172-833), lysine-specific demethylase 1 (human) (UniProt O60341); assay: enzyme inhibition kinetics (HRP-coupled fluorescence demethylation assay); 25 nM LSD1, substrate H3K4me1_(1-21), 25 mM Tris, 50 mM NaCl, 0.1 mg/mL BSA, pH 8, 1% DMSO; Ki by global fit of competitive inhibition for 1, 11, 24, 28, 31, 33, 34, else from IC50 by Cheng-Prusoff (substrate 20 μM)
[2] = biological target: LSD1_(172-833), lysine-specific demethylase 1 (human) (UniProt O60341)
[3] = biological target: LSD1_(172-833), lysine-specific demethylase 1 (human) (UniProt O60341); remark: listed apart in the source

Row | Substance | Ki [1] | % inhibition of LSD1 demethylase activity at 100 μM peptide [2] | % inhibition of LSD1 demethylase activity at 100 μM peptide [3] | IC50 of inhibition of LSD1 demethylase activity [3]
1 | lactam 27 (Lys3-Glu6 lactam-bridged H3_(1-11) K4M) (peptide) | 31 µM | 65% | – | –
2 | lactam 28 (Glu3-Lys6 lactam-bridged H3_(1-11) K4M) (peptide) | 4 µM | 98% | – | –
3 | lactam 29 (A1P-substituted lactam 27) (peptide) | 7 µM | 90% | – | –
4 | lactam 30 (A1P-substituted lactam 28) (peptide) | 22 µM | 75% | – | –
5 | lactam 32 (D-Glu3-Lys6 lactam-bridged H3_(1-11) K4M) (peptide) | > 100 µM | < 20% | – | –
6 | macrocycle 31 (D-Lys3-Glu6 lactam-bridged H3_(1-11) K4M) (peptide) | 2.3 µM | 100% | – | –
7 | peptide 20, linear precursor of 21 (allylglycine at positions 3 and 6 of H3_(1-11) K4M) | – | – | 95% | 10 µM
